Usually EC50 stands for the concentration giving half of the maximal effect. A lower EC50 goes with greater potency. In general, Kd refers to the free concentration of one partner at which half of the binding sites on the other are occupied at equilibrium, for simple one-to-one binding.

Among the data in patent publication US20240218057A1 (ROCKEFELLER UNIVERSITY, published 2024) are EC50 and Kd values, retold here.

One assay concerns the target SARS-COV-2 RBD (SARS-COV-2, UniProt P0DTC2 319-539). Briefly: ELISA, RBD coated. In general terms: In an ELISA, binding on a coated surface is turned into a signal by an enzyme label.
For assay [1], the target named is T1, SARS-CoV-2 receptor-binding domain (WT RBD; S protein residues 319-539) (SARS-CoV-2, UniProt P0DTC2 319-539).
T1 construct: also called SARS-COV-2 RBD
Description: BLI (Octet Red), IgG on protein A biosensor, WT RBD in solution, 1:1 fit. On the technique in general: In BLI a coated tip is dipped into the sample, and binding shifts an interference pattern.

Numbering of substitutions follows the chain as printed.

B1: C547 (antibody, V domains shown)
VH: QVQLVESGGGVVQPGRSLRLSCAASGFTFSSYGMHWVRQAPGKGLEWVAVISYDGSNKYYADSVKGRFTISRDNSKNTLYLQMNSLRAEDTAVYYCAKDTPGGDDILTGWGLYGMDVWGQGTTVTVSS
VL: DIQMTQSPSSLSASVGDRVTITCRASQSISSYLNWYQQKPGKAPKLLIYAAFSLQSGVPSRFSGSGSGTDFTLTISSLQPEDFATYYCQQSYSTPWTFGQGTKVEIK
On to B1, for which the EC50 with SARS-COV-2 RBD was determined as 1.78 ng/mL.

B2: C543 (antibody, V domains shown)
VH: B1 VH with A23T, S31T, Y32A, Y59D, N77S, A88P, L107M
VL: DIQMTQSPSSLSASVGDRVTITCRASQSISSYLNWYHQKPGKAPKLLIYAAISLQSGVPSRFSGSGFGTDFTLTISSLQPEDFAIYYCQQSYSTPWTFGQGTKVEIK
For B2, it took 1.28 ng/mL to reach a half-maximal effect with SARS-COV-2 RBD (EC50).

B3: C046 (antibody, V domains shown)
VH: EVQLVESGGGLAQPGRSLRLSCAASGFTFDDYAMHWVRQAPGKGLEWVSGINWNSGSLGYADSVKGRFTISRGIAKNSLYLQMNSLRPEDTAFYYCAKAGVRGIAAAGPDLNFDYWGQGTLVTVSS
VL: EIVLTQSPATLSLSPGERATLSCRASQSVSSYLAWYQQKPGQAPRLLIYDASNRATGIPARFIGSGSGTDFTLTISSLEPEDFAVYYCQQRITFGQGTRLEIK
Take B3: a half-maximal response with SARS-COV-2 RBD (EC50) required 4.02 ng/mL.

B4: C534 (antibody, V domains shown)
VH: QVQLVQSGAEVKKPGSSVRVSCKASGGTFSRNVISWVRQAPGQGLEWMGGIIPMFATANYAQKFQGRVTITADESSSTAYMELSSLRSEDTAVYYCAREDFILVSAPIRENSYYYYGMDVWGQGTTVTVSS
VL: EIVLTQSPGTLSLSPGERATLSCRASQSVSSNYLAWYQQKPGQAPRLLIYDASSRATGIPDRFSGSGSGTDFTLTISRLEPEDFAVYYCQQYGGSPRTFGQGTKVEIK
Regarding B4, the concentration giving a half-maximal response (EC50) in the assay with SARS-COV-2 RBD is 4.85 ng/mL.

B5: C916 (antibody, V domains shown)
VH: EVQLVESGGGLVQPGGSLRLSCAASGFTFSNYDMHWVRQATGRGLEWVSTIGTAGDTYYPGSVKGRFTISRENAKNSLYLQMNSLRAGDTALYYCARVRYDSSGYFWSLDYWGQGTLVTVSS
VL: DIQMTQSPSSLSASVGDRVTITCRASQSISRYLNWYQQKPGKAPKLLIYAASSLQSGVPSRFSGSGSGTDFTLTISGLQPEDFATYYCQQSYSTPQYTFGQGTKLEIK
Molecule B5 yielded a dissociation constant (Kd) in assay [1] of 3.45 nM.

B6: C917 (antibody, V domains shown)
VH: B5 VH with R43K, E46D, L92V, Y100F, S102T
VL: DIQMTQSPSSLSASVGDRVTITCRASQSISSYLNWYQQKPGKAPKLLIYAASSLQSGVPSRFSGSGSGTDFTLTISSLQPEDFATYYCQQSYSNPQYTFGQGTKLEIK
Molecule B6 displayed a dissociation constant Kd in assay [1] of 0.101 nM.

B7: C934 (antibody, V domains shown)
VH: QVQLVQSGAEVKKPGASVKVSCKASGYTFTDYYIHWVRQAPGQGLEWMGWINPNSGGTNYAQKFQGRVTMTRDTSISTAYMDLSRLRSDDTAVYYCARDVIITMGRGVVFRMDVWGQGTTVTVSS
VL: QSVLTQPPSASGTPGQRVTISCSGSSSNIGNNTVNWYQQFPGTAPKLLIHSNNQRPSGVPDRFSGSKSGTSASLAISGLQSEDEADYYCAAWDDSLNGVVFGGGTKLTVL
In the case of B7, the Kd in assay [1] worked out at 100 nM.

B8: C537 (antibody, V domains shown)
VH: QLQLQESGPGLVKPSETLSLTCTVSGGAISSRNYHWGWIRQPPGKGLEWIGSIYYSGSTYYSPSLKSRVTISVDTSKNQFSLRLSSVTAADTAVYYCARLETSGWYTEDVFDIWGQGTMVTVSS
VL: B2 VL with H37Q, I52S, F67S, Q79L, I85T, Q90R, T94A, P95M, W96Y, V104L
On to B8, for which, in the assay with SARS-COV-2 RBD, a half-maximal response (EC50) required 41.9 ng/mL.

B9: C542 (antibody, V domains shown)
VH: EVQLVESGGGLVQPGGSLRLSCAASGLTVTSNYMSWVRQAPGRGLEWVSLIYPGGTTYYADSVKGRFTVSRDNSKNTLYLQMDSLRAEDTGVYYCARETLGRGGDCWGQGTLVTVSS
VL: DIQMTQSPSSLSASVGDRVTITCQASQDISNFLNWYQQKPGKAPKLLIYDASNLETGVPSRFSGSRSGTDFTFTISSLQPDDIATYYCQQYDNLPRSFGQGTKLEIK
For the molecule B9, the EC50 in the assay with SARS-COV-2 RBD was 1.07 ng/mL.

B10: C1003 (antibody, V domains shown)
VH: QVQLVESGGGVVQPGRSLRLSCAASGFAFSSYGMNWVRQAPGKGLEWVTTVSSDGNVNYYIDSVKGRFTISRDNSKNTLYLQMNSLRGDDTAVYYCAKGPRFGWSYRGGSGFDIWGQGTMVTVSS
VL: B9 VL with F32Y, R66G, S76T, D81E, R96I, S97T, K103R
For B10, the affinity in assay [1], expressed as Kd, was 90.9 nM.

B11: C1010 (antibody, V domains shown)
VH: QVQLVESGGGVVQPGRSLRLSCAASGFTFSSYAMHWVRQAPGKGLEWVAVISYDGSNKYYADSVKGRFTISRDNSKNTLYLQMNSLRAEDTAVYYCAKKGQPYCGGDCYFYYFDYWGQGTLVTVSS
VL: DIQMTQSPSSLSASLGDRVTITCQASQDISNYLNWYQQKPGKAPKLLIYDASNLETGVPSRFSGSGSGTDFTFTISSLQPEDIATYYCQQYDNLPPITFGQGTRLEIK
B11: the Kd in assay [1] is 62.5 nM.

B12: C1011 (antibody, V domains shown)
VH: QVQLVESGGGVVQPGRSLRLSCAVSGFTFSHYAMHWVRQAPGKGLEWVAVISYDGADKYYADSVRGRFTIARDNSKNTLFLQMSSLRPEDTAVYYCAKKGQPYCGGDCHFYYLDYWGQGTLVTVSS
VL: B11 VL with L15V, Y32H, P80A
As to B12, the affinity in assay [1], expressed as Kd, was 0.0833 nM.

B13: C1002 (antibody, V domains shown)
VH: EVQLVESGGGLVQPGGSLRLSCAASEFIVSSNYMTWVRQAPGKGLEWVSIMYPGGSTFYADSVKGRFTISRDNSKNTLYLQINRLRAEDTAVYYCARDIAGRLDYWGQGTLVTVSS
VL: B11 VL with L15V, S30N, T72S, P95S, P96R, I97L, Q101G, R104K, L105V
Take B13: binding in assay [1] was put at a Kd of 0.00196 nM.

B14: C538 (antibody, V domains shown)
VH: QLQLQESGPGLVKPSETLSLTCTVSGGSISSSSYYWAWIRQPPGKGLEWIGNIYYSGITYYSPSLKSRVTISVDTSKNQFSLKLRSVTAADTAVYYCARQHRYGSGSSELLWGQGTLVTVSS
VL: QSALTQPPSASGSPGQSVTISCTGTSSDVGSYNYVSWYQQHPGKAPKLMIYEVTKRPSGVPDRFSGSKSGNTASLTVSGLQADDEADYYCSSYAGSSNLIFGGGTKLTVL
For B14, the response with SARS-COV-2 RBD was half-maximal at 3.94 ng/mL (EC50).

B15: C840 (antibody, V domains shown)
VH: QVQLVESGGGVVQPGRSLRLSCEASGFTFTAYAMHWLRQAPGKGLEWVAVILNDGSNKLYADSVKGRFTVSRDNSKNMLYLQVNSLRVDDTAVYYCARDGSVDTLMVTWFDYWGQGTLVTVSS
VL: DIQMTQSPSSLSASVGDRVTITCRASQSVNNYLNWYQQKPGQAPKLLIYAASSLQSGVPLRFSGSGSGTDFALTITSLHTEDFATYYCQQSYNTPPWTFGPGTKVEIK
With B15, in assay [1], the Kd was determined as 5.56 nM.

B16: C841 (antibody, V domains shown)
VH: EVQLVESGGGLVQPGGSLRLSCAASGFTFSIFSMNWVRQAPGKGLEWISYISSSSGSRHYADSVKGRFTISRDNAKNSLYLQMNNLRDEDTAMYYCAREAHDGALTGYGDYLNWFDPWGQGVLVTVSS
VL: SYELTQPPSVSVAPGKTARIPCGGDSVGSKSVHWYQQKSGQAPVLVIHSDSDRPSGIPERFSGSNSGNTATLTITGVAAGDEADYYCHVWDTIGDRFYWVFGGGTKLTVL
As to B16, the Kd in assay [1] came to 1.64 nM.

B17: C888 (antibody, V domains shown)
VH: EVQLVESGGGLVQPGGSLRLSCAASGFTVSSNYMSWVRQAPGKGLEWVSVIYSGGSAYYADSVKGRFTISRDNSKNTLYLQMNSLRAEDTAVYYCARDLRDQDGYSYGAFDYWGQGTLVTVSS
VL: QSALTQPASVSGSPGQSITISCTGTSSDVGGYNYVSWYQQHPGKAPKLMIYDVSNRPSGVSNRFSGSKSGNTASLTISGLQAEDEADYYCSSYTSSSSWVFGGGTKLTVL
B17: the Kd in assay [1] turned out to be 1390 nM.

B18: C889 (antibody, V domains shown)
VH: EVQLVESGGGLVQPGGSLRLSCAVSGFTVSSNYMTWVRQAPGKGLEWVSLIYSGTSAFYADSVKGRFTISRDNSKNTLYLQMSSLRVNDTAIYYCARDLRKDDGYSYGAFDYWGQGTLVTVSS
VL: QSALTQPASVSGSPGQSITISCSGTSSDVGAHNYVSWYQQYPGKAPKLMIFDVTDRPSGVSNRFSGSKSGNTASLTISGLQAEDEADYYCTSYTTNRSWVFGGGTKVTVL
Molecule B18 came in with a dissociation constant (Kd) in assay [1] of 4.17 nM.

B19: C936 (antibody, V domains shown)
VH: EVQLVESGGGLIQPGGSLRLSCAASGFTVSSNYMSWVRQAPGKGLEWVSVIYSGGSTFYADSVKGRFTISRDNSKNTLYLQMNSLRAEDTAVYYCARDLGTGLFDYWGQGTLVTVSS
VL: DIQLTQSPSFLSASVGDRVTITCRASQGISSYLAWYQQKPGKAPKLLIYAASTLQSGVPSRFSGSGSGTEFTLTISSLQPEDFATYYCQQLDSYPPGTFGPGTKVDIK
On to B19, for which, in assay [1], binding was characterised by a dissociation constant (Kd) of 667 nM.

B20: C929 (antibody, V domains shown)
VH: B19 VH with S35T, S56T, F58Y, G100V, T101V, G102W, L103G, F104M, Y106V, L112T
VL: DIQLTQSPSFLSASVGDRVTITCRASQGISSYLAWYQQKPGKAPKLLIYAASTLQSGVPSRFSGSGSGTEFTLTISSLQPEDFATYYCQLLNSYPYTFGQGTKLEIK
In turn, B20 returned a Kd in assay [1] of 0.127 nM.

B21: C930 (antibody, V domains shown)
VH: EVQLVESGGGLFQPGGSLRLACAASGITVSSNYMSWVRQPPGKGLEWVSVIYAGGSTFYADSVKGRLTISRDNSKNTLYLQINSLRAEDTAVYYCARDLVVWGMDVWGQGTTVTVSS
VL: B20 VL with L90Q, S93T
Turning to B21, in assay [1], the dissociation constant (Kd) was 0.323 nM.

B22: C937 (antibody, V domains shown)
VH: B19 VH with G26E, F27L, S53P
VL: B19 VL with Y87F, Q90L, D92N, Y94N
The molecule B22 returned a Kd in assay [1] of 3.03 nM.

B23: C871 (antibody, V domains shown)
VH: EVQLVESGGGLIQTGGSLKLSCAASGFIVTNNYMSWVRQAPGKGLEWVSVIYSGGTTYYADSVKGRFTISRDISKNTLYLQMNSLKAEDTAVYYCAREGDVEGISDSWSGYSRDRYYFDHWGQGTLVTVSS
VL: QSALTQPASVSGSPGQSITISCTGTSSDVGGYNYVSWYQQHPGKAPKLMIYDVSNRPPTISNRFSGSKSGNTASLIISGLQPEDEADYYCSSFTSNNTRVFGTGTKVTVL
With B23, the Kd in assay [1] came to 3.7 nM.

B24: C533 (antibody, V domains shown)
VH: EVQLVESGGSLVKPGGSLRLSCVASGLTFNHAWMSWVRQAPGKGLEWVGRIKSKIDGGTTDYAAPVKGRFTISRDDSKSTQYLQMNSLKTEDTAVYYCTTDCFWRLGGTTCYEHDAFDVWGQGTMVTVSS
VL: DIQMTQSPSSLSASVGDRVTITCRASQAIATFLNWYQQKPGKAPKLLIYAASSLQSGVPSRFSGSGSGTDFTLTISNLQPEDFATYYCQQSYNSLHFGGGTKVEIK
Consider B24, for which the response with SARS-COV-2 RBD was half-maximal at 1.61 ng/mL (EC50).
